This is an account of results in US20200390870A1 (MINERVA BIOTECHNOLOGIES, published 2020).

Sequences and labels used below:
B4: PSMGFR minus 10 amino acids from the C-terminus (peptide)
peptide: GTINVHDVETQFNQYKTEAASRYNLTISDVSVSDV
notes: also called C-10; C-10 PSMGFR

In assay [1] the target is MUC1-41TR (MUC1 with an extracellular domain truncated after 41 tandem repeats) (Homo sapiens (Human)) (UniProt P15941). Put plainly: FACS on HCT-MUC1-41TR cells.
The target in assay [2] is T1, PSMGFR peptide (Primary Sequence of the MUC1 Growth Factor Receptor).
T1 construct: synthetic peptide, immobilized on ELISA plates or attached to beads; also called MUC1* peptide; synthetic MUC1* extra cellular domain peptide
T1 peptide: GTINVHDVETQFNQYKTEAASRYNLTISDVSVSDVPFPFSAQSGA
The assay is described as follows: ELISA, surface coated with PSMGFR peptide or a control peptide. As for the experimental part:
Humanized MN-C2 scFv is then incubated with the surface, washed and detected according to standard methods.

Assay [3] concerns the target T1, PSMGFR peptide (Primary Sequence of the …). Put plainly: competitive ELISA on immobilized PSMGFR or N-10 peptide. As for the experimental part:
(§1) FIGS. 3A-3C show results of competitive ELISA assays. The PSMGFR MUC1* peptide is immobilized on the plate and dimeric NM23-H1, aka NME1, is added either alone or after the MN-E6 antibody has been added (A). The same experiment was performed wherein NM23-H7, NME7-AB, is added alone or after MN-E6 has been added (B). […] In a similar experiment (C), PSMGFR or PSMGFR minus 10 amino acids from the N-terminus, aka N-10, is immobilized on the plate. Dimeric NM23-H1 is then added. Anti-MUC1* antibodies MN-E6, MN-C2, MN-C3 or MN-C8 are then tested for their ability to compete off the NM23-H1.
In general terms: An ELISA detects its analyte on a solid surface through an enzyme-linked reagent.

Assay [4] has as its target T2, PSMGFR minus 10 amino acids from the N-terminus.
T2 construct: also called N-10; N-10 PSMGFR
T2 peptide: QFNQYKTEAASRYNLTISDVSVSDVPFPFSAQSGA
The assay is described as follows: selection criteria, FIGS. 3A-3C named. On the procedure: as §1

The next assay deals with T3, NME7-AB (human, UniProt Q9Y5B8 92-376).
T3 construct: also called NM23-H7
T3 sequence: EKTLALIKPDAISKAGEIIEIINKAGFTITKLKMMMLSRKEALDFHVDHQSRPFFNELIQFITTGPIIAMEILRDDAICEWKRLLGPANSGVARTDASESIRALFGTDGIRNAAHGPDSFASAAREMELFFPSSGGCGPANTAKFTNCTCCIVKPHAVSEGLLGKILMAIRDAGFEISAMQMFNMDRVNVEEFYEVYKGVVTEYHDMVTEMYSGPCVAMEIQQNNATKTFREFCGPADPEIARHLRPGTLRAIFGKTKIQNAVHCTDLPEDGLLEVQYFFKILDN
Put plainly: ELISA on immobilized peptide.

For a further assay, the target named is T4, dimeric NME1 (human, UniProt P15531 1-152, limits assumed).
T4 construct: used as a dimer; also called dimeric NM23-H1; NM23-H1 dimers
The assay is described as follows: ELISA on immobilized peptide.

Assay [5] concerns the target T5, MUC1-41TR (MUC1 with an extracellular domain truncated after 41 tandem repeats) (Homo sapiens (Human), UniProt P15941 24-1255).
T5 construct: only minimally cleaved to MUC1*; also called HCT-MUC1-41TR; HCT-MUC1-18
Put plainly: CAR T co-culture, photographs; no T cell induced clustering. On the procedure:
FIGS. 75A-75P show photographs of a CAR T co-culture assay in which the targeting antibody fragment of the CAR is huMNC2scFv wherein CAR44 has a CD8 transmembrane domain, followed by 41BB-3zeta and CAR50 has a CD4 transmembrane domain, followed by 41BB-3zeta. […] The HCT-MUC1-41TR cancer cells were also incubated with conditioned media from cells transfected with MMP9 or ADAM17 before co-culture with the CAR T cells. Conditioned media of the MMP9 or ADAM17 expressing cells were also incubated with APMA which is an activator of those cleavage enzymes. The images shown are an overlay of the 4× bright field image and the fluorescent image of the same showing cancer cells dyed with a red CMTMR lipophilic dye. FIGS. 75A, 75E, 75I, 75M show photographs of cells co-cultured with untransduced human T cells. FIGS. 75B, 75F, 75J, 75N show photographs of cells co-cultured with human T cells transduced with anti-MUC1* CAR44 at an MOI of 10. FIGS. 75C, 75G, 75K, 75O show photographs of cells co-cultured with human T cells transduced with anti-MUC1* CAR50 at an MOI of 10. FIGS. 75D, 75H, 75L, 75P show photographs of cells co-cultured with human T cells transduced with anti-MUC1* CAR44 at an MOI of 50, which increases transduction efficiency. […] There is no T cell induced clustering and the number of cancer cells has not decreased. […]

Assay [6] deals with T1, PSMGFR peptide (Primary Sequence of the …). The assay is described as follows: ELISA on immobilized PSMGFR, N-10 and C-10 peptides. On the procedure: FIGS. 22A-22C show graphs of ELISAs wherein the assay plate surface was immobilized with either PSMGFR peptide, PSMGFR minus 10 amino acids from the N-terminus or minus 10 amino acids from the C-terminus. The MN-C3 antibody variants were then assayed for binding to the various MUC1* peptides. A) Purified mouse monoclonal MN-C3 antibody; B) Impure humanized MN-C3 antibody; and C) the humanized MN-C3 scFv-Fc. ELISAs show binding to the PSMGFR peptide as well as to certain deletion peptides.

Assay [7] concerns the target B4. Put plainly: ELISA on immobilized N-10 and C-10 peptides.
Assay [8] deals with T1, PSMGFR peptide (Primary Sequence of the …). The assay is described as follows: ELISA on PSMGFR peptide. The source says:
FIGS. 21A-21B show an ELISA graph of several anti-MUC1* scFv-Fc fusion proteins wherein the Fc region has been eliminated or mutated. Shown are hu MN-E6 scFv-Fc-wt, hu MN-E6 scFv-Fc-Y407R, hu MN-E6 scFv-Fc-hingeless, and hu MN-E6 scFv-Fc-Y407R-hingeless. All mutants bind to the PSMGFR peptide of the MUC1* extracellular domain (A). An ELISA graph of several anti-MUC1* scFv-Fc fusion proteins wherein the Fc region is either wild type or mutated. Shown are hu MN-E6 scFv-Fc-wt, hu MN-E6 scFv-Fc-hingeless, and hu MN-C3 scFv-Fc is shown (B). All bind to the PSMGFR peptide of the MUC1* extracellular domain.

T5 sequence (P15941 other isoform, or with tags, fused parts or gaps limits assumed): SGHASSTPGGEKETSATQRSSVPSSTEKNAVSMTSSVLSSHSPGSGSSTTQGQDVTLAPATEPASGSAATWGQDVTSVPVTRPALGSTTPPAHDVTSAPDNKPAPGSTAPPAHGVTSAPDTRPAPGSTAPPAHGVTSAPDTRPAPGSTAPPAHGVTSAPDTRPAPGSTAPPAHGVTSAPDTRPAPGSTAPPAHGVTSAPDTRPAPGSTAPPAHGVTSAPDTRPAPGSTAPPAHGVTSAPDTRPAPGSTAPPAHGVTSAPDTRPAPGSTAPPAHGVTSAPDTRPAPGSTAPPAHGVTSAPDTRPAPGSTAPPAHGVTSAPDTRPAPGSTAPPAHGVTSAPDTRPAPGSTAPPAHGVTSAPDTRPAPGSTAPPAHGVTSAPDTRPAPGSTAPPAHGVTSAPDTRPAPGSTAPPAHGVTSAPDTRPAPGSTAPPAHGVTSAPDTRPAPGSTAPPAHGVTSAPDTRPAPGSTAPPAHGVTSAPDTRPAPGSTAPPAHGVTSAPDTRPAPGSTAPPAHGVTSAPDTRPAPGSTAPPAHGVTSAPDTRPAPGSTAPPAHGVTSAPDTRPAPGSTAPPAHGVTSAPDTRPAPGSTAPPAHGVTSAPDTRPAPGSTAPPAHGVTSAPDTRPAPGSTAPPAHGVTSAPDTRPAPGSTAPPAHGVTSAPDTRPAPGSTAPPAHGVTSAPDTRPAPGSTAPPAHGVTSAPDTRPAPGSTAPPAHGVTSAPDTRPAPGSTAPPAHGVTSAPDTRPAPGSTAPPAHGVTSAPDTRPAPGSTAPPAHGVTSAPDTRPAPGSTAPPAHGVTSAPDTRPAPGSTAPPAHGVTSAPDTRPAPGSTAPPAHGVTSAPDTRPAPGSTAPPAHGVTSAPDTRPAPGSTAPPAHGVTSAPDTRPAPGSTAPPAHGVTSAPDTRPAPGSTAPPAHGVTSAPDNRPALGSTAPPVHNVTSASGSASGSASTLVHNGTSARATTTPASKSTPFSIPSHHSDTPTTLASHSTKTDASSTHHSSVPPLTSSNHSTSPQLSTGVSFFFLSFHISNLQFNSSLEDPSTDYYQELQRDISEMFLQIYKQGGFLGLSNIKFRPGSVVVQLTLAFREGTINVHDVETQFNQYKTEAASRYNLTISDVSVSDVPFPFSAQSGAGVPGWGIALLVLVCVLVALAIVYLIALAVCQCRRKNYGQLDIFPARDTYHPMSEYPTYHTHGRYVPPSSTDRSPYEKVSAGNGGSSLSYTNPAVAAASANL
MUC1-41TR (MUC1 with an extracellular domain truncated after 41 tandem repeats) (Homo sapiens (Human)), sequence (P15941 other isoform, or with tags, fused parts or gaps limits assumed): as above
T4 sequence (P15531 whole entry): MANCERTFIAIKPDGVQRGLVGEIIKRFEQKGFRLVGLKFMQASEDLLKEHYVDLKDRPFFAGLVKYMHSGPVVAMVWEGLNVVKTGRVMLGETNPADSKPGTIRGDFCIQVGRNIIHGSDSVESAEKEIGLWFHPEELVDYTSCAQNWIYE

Molecule VU4H5 (antibody) had a percent of cells positive in [1] of 95%.

B1: humanized MN-C2 scFv (scFv, V domains shown)
VH: EVQLVESGGGLVKPGGSLRLSCAASGFTFSGYAMSWVRQAPGKGLEWVSTISSGGTYIYYPDSVKGRFTISRDNAKNSLYLQMNSLRAEDTAVYYCARLGGDNYYEYFDVWGKGTTVTVSS
VL: DIVLTQSPASLAVSPGQRATITCRASKSVSTSGYSYMHWYQQKPGQPPKLLIYLASNLESGVPARFSGSGSGTDFTLTINPVEANDTANYYCQHSRELPFTFGGGTKVEIKR
notes: several humanized MN-C2 single chain proteins were generated; the one in the assays is not identified; also called huMN-C2 scFv; hMN-C2 scFv; not shown: 6x His tag, detected in the flow cytometry assay
The molecule B1 displayed an EC50 in assay [2] of about 333 nM.

B2: mouse monoclonal antibody MN-E6 (antibody, V domains shown)
VH: EVKVVESGGDLVKPGGSLKLSCVVSGFTFSRYGMSWVRQTPGKRLEWVATISGGGTYIYYPDSVKGRFTISRDNAKNTLYLQMSSLKSEDTAMYHCTRDNYGRNYDYGMDYWGQGTSVTVSS
VL: QIVLTQSPAIMSASPGEEVTLTCSATSSVSYIHWFQQRPGTSPKLWIYSTSNLASGVPVRFSGSGYGTSYSLTISRMEAEDAATYYCQQRSSSPFTFGSGTKLEIK
notes: mouse monoclonal; also called Min-E6
Consider B2, for which the binding result in assay [3] and in assay [4] was “binds” throughout.

B3: mouse monoclonal antibody MN-C2 (antibody, V domains shown)
VH: EVQLEESGGGLVKPGGSLKLSCAASGFTFSGYAMSWVRQTPEKRLEWVATISSGGTYIYYPDSVKGRFTISRDNAKNTLYLQMSSLRSEDTAMYYCARLGGDNYYEYFDVWGAGTTVTVSS
VL: DIVITQSTASLGVSLGQRATISCRASKSVSTSGYSYMHWYQQRPGQPPKLLIYLASNLESGVPARFSGSGSGTDFTLNIHPVEEEDAATYYCQHSRELPFTFGGGTKLEIKR
notes: mouse monoclonal; also called Min-C2
Consider B3, for which the binding result in assay [3] and in assay [4] was “binds” in each case.

On to B4, for which the binding result with NME7-AB and with dimeric NME1 was “no binding” in each case.

B5: CAR50 (MNC2 scFv, CD4 transmembrane domain, 41BB-3zeta) (other)
chain: EVQLVESGGGLVKPGGSLRLSCAASGFTFSGYAMSWVRQAPGKGLEWVSTISSGGTYIYYPDSVKGRFTISRDNAKNSLYLQMNSLRAEDTAVYYCARLGGDNYYEYFDVWGKGTTVTVSSGGGGSGGGGSGGGGSDIVLTQSPASLAVSPGQRATITCRASKSVSTSGYSYMHWYQQKPGQPPKLLIYLASNLESGVPARFSGSGSGTDFTLTINPVEANDTANYYCQHSRELPFTFGGGTKVEIKRTSGQVLLESNIKVLPTWSTPVQPMALIVLGGVAGLLLFIGLGIFFKRGRKKLLYIFKQPFMRPVQTTQEEDGCSCRFPEEEEGGCELRVKFSRSADAPAYKQGQNQLYNELNLGRREEYDVLDKRRGRDPEMGGKPRRKNPQEGLYNELQKDKMAEAYSEIGMKGERRRGKGHDGLYQGLSTATKDTYDALHMQALPPR
notes: chimeric antigen receptor on transduced human T cells; also called huMNC2-CAR50; huMNC2-scFv-CAR50
For B5, in assay [5], the binding result is “no binding”.

B6: CAR44 huMNC2-CD8-4-1BB-CD3z (other)
chain: EVQLVESGGGLVKPGGSLRLSCAASGFTFSGYAMSWVRQAPGKGLEWVSTISSGGTYIYYPDSVKGRFTISRDNAKNSLYLQMNSLRAEDTAVYYCARLGGDNYYEYFDVWGKGTTVTVSSGGGGSGGGGSGGGGSDIVLTQSPASLAVSPGQRATITCRASKSVSTSGYSYMHWYQQKPGQPPKLLIYLASNLESGVPARFSGSGSGTDFTLTINPVEANDTANYYCQHSRELPFTFGGGTKVEIKRTTTTPAPRPPTPAPTIASQPLSLRPEACRPAAGGAVHTRGLDFACDIYIWAPLAGTCGVLLLSLVITLYCKRGRKKLLYIFKQPFMRPVQTTQEEDGCSCRFPEEEEGGCELRVKFSRSADAPAYKQGQNQLYNELNLGRREEYDVLDKRRGRDPEMGGKPRRKNPQEGLYNELQKDKMAEAYSEIGMKGERRRGKGHDGLYQGLSTATKDTYDALHMQALPPR
notes: also called huMNC2-CAR44; huMNC2-scFv-CAR44
Take B6: the binding result in [5] is “no binding”.

B7: mouse monoclonal antibody MN-C3 (antibody, V domains shown)
VH: QVQLQQSGPELVRPGVSVKISCKGSGYRFTDYAMNWVKQSHAKSLEWIGVISTFSGNTNFNQKFKGKATMTVDKSSSTAYMELARLTSEDSAMYYCARSDYYGPYFDYWGQGTTLTVSS
VL: DVLMTQTPLSLPVSLGDQASISCRSSQTIVHSNGNTYLEWYLQKPGQSPKLLIYKVSNRFSGVPDRFSGSGSGTDFTLKINRVEAEDLGVYYCFQGSHVPFTFGSGTKLEIK
notes: mouse monoclonal; also called Min-C3
Regarding B7, the binding result in assay [6] and in assay [7] was “binds” each time.

B8: humanized MN-C3 antibody (antibody, V domains shown)
VH: QVQLVQSGAEVKKPGASVKVSCKASGYTFTDYAMNWVRQAPGQGLEWMGVISTFSGNTNFNQKFKGRVTMTTDTSTSTAYMELRSLRSDDTAVYYCARSDYYGPYFDYWGQGTTLTVSS
VL: DIVMTQTPLSLSVTPGQPASISCRSSQTIVHSNGNTYLEWYLQKPGQSPQLLIYKVSNRFSGVPDRFSGSGSGTDFTLKISRVEAEDVGVYYCFQGSHVPFTFGGGTKVEIKR
notes: tested impure; also called Impure humanized MN-C3 antibody
For B8, the binding result in [6] is reported as “binds”.

B9: humanized MN-E6 scFv (scFv, V domains shown, not shown: small tags and cut ends)
VH: EVQLVESGGGLVKPGGSLRLSCAASGFTFSRYGMSWVRQAPGKRLEWVSTISGGGTYIYYPDSVKGRFTISRDNAKNTLYLQMNSLRAEDTAVYYCTRDNYGRNYDYGMDYWGQGTLVTVSS
VL: EIVLTQSPATLSLSPGERATLTCSATSSVSYIHWYQQRPGQSPRLLIYSTSNLASGIPARFSGSGSGSDYTLTISSLEPEDFAVYYCQQRSSSPFTFGSGTKVEIK
notes: several humanized MN-E6 single chain proteins were generated; the one in the assays is not identified; also called hu MN-E6 scFv
B9: the binding result in assay [8] is listed as “binds”.

A word on the EC50: it is the concentration that produces a half-maximal response. The low end stands for an effect from little substance, the high end for a need for much substance.
